Data on one molecule can be found in publication PMC9198048, “Ursodeoxycholic acid reduces antitumor immunosuppression by inducing CHIP-mediated TGF-β degradation” (Nature Communications, 2022).

In this test the target is T1, Flag-TGF-β1WT (UniProt P04202 30-390).
T1 construct: TGF-β1 expressed from PCMV6-TGF-β1-Flag, constructed from the Origene plasmid PCMV6-TGF-β1-Myc-Flag (MR227339); Origene MR clones are mouse ORF clones as far as I recall; the printed sites T282 and K315 fit the precursor numbering of mouse and human TGF-β1; In cells the protein may be phosphorylated (T282) and ubiquitinated (K315); also called PCMV6-TGF-β1-Flag; source: HEK293T, transfected, in …
The test is described as follows: pull-down; about 1 µg His-CHIP bound to His beads mixed with 1 µg Flag-TGF-β1WT or Flag-TGF-β1T282A, 4 °C overnight, washed three times with cell lysis buffer, immunoblot. Particulars: both partners purified.

T1 sequence (P04202 30-390): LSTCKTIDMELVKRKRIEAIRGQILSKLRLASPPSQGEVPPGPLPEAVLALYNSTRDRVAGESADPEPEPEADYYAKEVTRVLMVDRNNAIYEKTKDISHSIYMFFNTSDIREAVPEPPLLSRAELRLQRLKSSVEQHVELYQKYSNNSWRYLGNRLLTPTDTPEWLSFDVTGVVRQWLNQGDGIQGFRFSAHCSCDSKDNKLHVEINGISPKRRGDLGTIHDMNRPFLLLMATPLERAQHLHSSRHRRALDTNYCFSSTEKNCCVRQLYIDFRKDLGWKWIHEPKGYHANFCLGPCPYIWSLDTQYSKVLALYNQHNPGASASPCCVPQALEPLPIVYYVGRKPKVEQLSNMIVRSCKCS

B1: His-CHIP (enzyme, UniProt Q9WUD1 1-304, looked up)
chain: MKGKEEKEGGARLGTGGGGSPDKSPSAQELKEQGNRLFVGRKYPEAAACYGRAITRNPLVAVYYTNRALCYLKMQQPEQALADCRRALELDGQSVKAHFFLGQCQLEMESYDEAIANLQRAYSLAKEQRLNFGDDIPSALRIAKKKRWNSIEERRIHQESELHSYLTRLIAAERERELEECQRNHEGHEDDGHIRAQQACIEAKHDKYMADMDELFSQVDEKRKKRDIPDYLCGKISFELMREPCITPSGITYDRKDIEEHLQRVGHFDPVTRSPLTQEQLIPNLAMKEVIDAFISENGWVEDY
notes: also called PCMV6-CHIP-His
Turning to B1, the binding result is recorded as “binds”.
